Source: the nanobody polyreactivity screen of Harvey et al. (2022)

Assay: yeast display, Sf9 membrane polyspecificity reagent, FACS + sequencing; frameworks hold sequencing errors
In short: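 After 36–48 hours of galactose induction, yeast (Saccharomyces cerevisiae BJ5465) displaying a synthetic nanobody library were stained at 4 °C for 1 hour with 10% biotinylated, detergent-solubilized Sf9 membrane reagent. Streptavidin microbeads enriched the stained cells before FACS sorting into low and high (top ~1%) gates on anti-HA and streptavidin fluorescence. Each clone's polyreactivity label reflects its gate of origin.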

| Sequence | polyreactivity (PSR sort gate) |
| --- | --- |
| QVQLVDSGGGLVQAGGSLRLSCAASGRTIWRNAMGWYRQAPGKERELVAAIRWSGGRTYADSVKGRFTISRDKAKNTVYLQMNILKPEDTAVYYCNARGLSDWTLKLDYWGQGTQVTVSS | low polyreactivity |
| QVQLVDSGGGLVQAGGSLRLSCAASGRTIYNYDMGWYRQAPGKERELVARIFSGGSTNYADSVKGRFTISRDNAKNTVYLQMNSLKPEDTAVYYCNAVLESQFIGWKFFYWGQGTQVSVSS | high polyreactivity |
| QVQLVDSGGGLVQAGGSLRLSCAASGSIFGSYAMGWYRQAPGKERELVAGISGRGGSTYYADSVKGRFTISRDNAKNTVYLQMNSLKPEDTAVYYCAAGRRNGWLIPHYYWGQGTQVTVSS | high polyreactivity |
| QVQLVDSGGGLVQAGGSLRLSCAASGSIFGYYAMGWYRQAPGKERELVAAINSGSSTNYADSVKGRFTISRDNAKNTVYLQMNSLKPEDTAVYYCNKDPWYVFHPRGLFLFDYWGQGTQVTVSS | low polyreactivity |
| QVQLVDSGGGLVQAGGSLRLSCAASGSIFIINAKGWYRQSPGKERELVAAINSGGSTKYADSVKGRFTISRDNAKNTVYLQMNSLKPEDTAVYYCNAGSRPTAGGMDSWGQGTQVTVSS | low polyreactivity |
| QVQLVDSGGGLVQAGGSLRLSCAASGSIFQRYAMGWYRQAPGKERELVAGINWSGGRTYYADSVKGRFTISRDNAKNTVYLQMNSLKPEDTAVYYCAAARYTRYDYWGQGTQVTVSS | high polyreactivity |
| QVQLVDSGGGLVQAGGSLRLSCAASGSIFSYYAMGWYRPAPGTERELVAGLSWGGGRTYYADSVKGRFTISRDNAKNTVYLQMNSLKQEDTAVYYCAARLTGLDYWGQGTQVTVSS | high polyreactivity |
| QVQLVDSGGGLVQAGGSLRLSCAASGSIFTYNGKVWYRQAPGKEREFVAAITWTGGSTYADSVKGRFTISSDNSNNTVYLQMNSLKREDTAVYYCAAVRRISWYTPVNTRRYYYWGQGTQVTVSS | high polyreactivity |
| QVQLVDSGGGLVQAGGSLRLSCAASGSIIGLYAMGWYRQAPGKERELVAAITTTGGSTYYADSVKGRFTISRDNAKNTVYLQMNSLKPEDTAVYYCNADYVAYGPEYDYWGQGTQVTVSS | low polyreactivity |
| QVQLVDSGGGLVQAGGSLRLSCAASGSITYYAMGWYRQAPGKERELVAAISSSGGSTYYADSVKGRFTISRDNAKNTVYLQMNSLKPEDTAVYYCAAYGRYGAHTGYGSWGQGTQVTVSS | high polyreactivity |
| QVQLVDSGGGLVQAGGSLRLSCAASGSTFPNNAMGRYRQAPGKERELVAAITTRGGSTYYADSVKGRFTISRDNAKNTVYLQMNSLKAEDTAVYYCAKRRRSAAPKYDYWGQGTQVTVSS | high polyreactivity |
| QVQLVDSGGGLVQAGGSLRLSCAASGSTFTSYAMGWYRQAPGKERELVAAITGSGGRTYYADSVKGRFTISRDNAKNTVYLQMNSLKPEDTAVYYCAARKVRTVYQSRGNYWGQGTLVTVSS | high polyreactivity |
| QVQLVDSGGGLVQAGGSLRLSCAASGSTFYGYAMGWYRQAPGKERELVAAITSSGTRTYYADSVKGRITISRDNAKNSVYLQMNSLKPEDTAVYYCAADAPNFGLYRDKDYDYWGQGTQVTVSS | high polyreactivity |
| QVQLVDSGGGLVQAGGSLRLSCAASGSTFYWYPMGWYRQAPGKERELVAAISRSSGSTYYADSVKGRFTISRDNAKNTVYLQMNSLTPEDTAVYYCAADYYLRSFVWTAYDSWGHGTQVTVSS | high polyreactivity |
| QVQLVDSGGGLVQAGGSLRLSCAASGSTYSPNAMGWNRQAPGKERELVAAITGGGSTTYADSVQGRFTISRDNATNTVYLQMNSLKPEETAVYYCNTDGPRYARPFDSWGQGTQVTVSS | low polyreactivity |
| QVQLVDSGGGLVQAGGSLRLSCAASGYIFPWYVKGWYRQAPVKERELVAAISWSGGSTYYADSVKGRFTISRDNAKNTVYLQMKSLKPEDTAVYYCNAVRTYRDVSYNSWGQGTQVNVSS | high polyreactivity |
| QVQLVDSGGGLVQAGGSLRLSCAASGYIFRVYAMGWYRQAPGKERELVAAISGSGGRTYYADSVKGRFTISRDNAKNTVYLQMNSLKPEDTAVYYCAAYRVSDYDYWGQGTQVTVSS | high polyreactivity |
| QVQLVDSGGGLVQAGGSLRLSCAASGYTFPSKTMGWYRQAPGKERELVAAISGGGRTYYADSVKGRFTISRDNAKNTVYLQMNCLKPEDSAVYYCAKDSWYTQNRYNYWGQGTQVNVSS | low polyreactivity |
| QVQLVDSGGGLVQAGGSLRLSCAASVITFGYYAMGWYRQAPGKERELVAAISRSGGNTRYADSVKGRFTISRDNAKNTVYLQMNSLKTDDTAVYYCAKRTTYSDDYWGQGTQVTVSS | high polyreactivity |
| QVQLVDSGGGLVQAGGSLRLSCADSGRTFYTNAMGWYRQAPGKERELVAAIDISGSTYYADSVKGRFTISRDNAKNTVYLQMNSLKPEDTAVYYCNVDTVCLGGEKGGYYWGQGSQVTVSS | low polyreactivity |
| QVQLVDSGGGLVQAGGSLRLSCAPSGYIFPYNAMGWYRQAPGKEREFVAAITSSGGSTYYADSVKGRFTISRENAKNTVYLQMNSLKPEDTAVYYCARVPLHRYGYWGQGTQVNVSS | high polyreactivity |
| QVQLVDSGGGLVQAGGSLRLSCDASGITFYDYAMGLYRQAPGKEMEFVASITSSGGYTYYADSVKGRFTISRDNAKNTVYLQMNILKPEDTSVYYCNVRYKRNRWQYDYWGQGTQVTVSS | high polyreactivity |

| Sequence | polyreactivity (PSR sort gate) |
| --- | --- |
| QVQLVDSGGGLVQAGGSLRLSCDASGSIFFWYTMGWYRQAPGKESELVATITGSGSSTTYADSVKGRFTISRDNAKNTVYLQMISLKPEDTAVYYCAAADIIDHSFPYDYWGLGTQVTVSS | low polyreactivity |
| QVQLVDSGGGLVQAGGSLRLSSAASGFTLLYNAMGSYRQAPGKERELVSTITGGGTTYADSVKGRFTISRDNAKNTVYLQMNSLKPEDTAVYYCATSRVWRLYRYLPQYRGYYYWGQGTQVTVSS | high polyreactivity |
| QVQLVDSGGGLVQAGGSLRLSSAASGSTFRYYAMGWYRQAPGKERELVAAISRSGGRTYYADSVKWRFTISRDKAKNTVYLQINSLKPEDNAVYYCNKDSRASPYGYWGQGTQVTVSS | high polyreactivity |
| QVQLVDSGGGLVQAGGSLRLTCAASGIIIPVYAMGWYRQAPGKERELVAAISSGGSTYYADSVKGRFTISRDNAKNTVYLQINSLKPEDTAVYYCAARKVRYPYRWYDYWGQGTQVTVSS | high polyreactivity |
| QVQLVDSGGGLVQAGGSLRLTCAASGRIFCDNAMGWYRQEPGKERELVAAISDSVVITYYADSVKGRFTISRDNAKNTVYLQMNSLKPEDTAVYYCAADKRGTVYLSSFWMDYWGQGTQVTVSS | low polyreactivity |
| QVQLVDSGGGLVQAGGSLRLTCAASGRTFYGNAMGWYRQAPGKERELVATINYSGGSTYYADSVKGRFTISRDNAKNTVYLQMNSLKPEDTAVYYCAADDPEEFDYWGQGTQVTVSS | low polyreactivity |
| QVQLVDSGGGLVQAGGSLRLTCAASGSIFNYYTMGWSRQAPGKERELVAAISSSGGSTYYADSVKGRFTISRDNAKNTVYLQMNSLKPVDTAVYFCNTYPPAHREYESWGQGTQLTVSS | high polyreactivity |
| QVQLVDSGGGLVQAGGSLRLTCAASGSIFPRNVMGWYRHAPGKERELVAAISSRATRTYYADSVKGRFTISRDNAKNTVYLQMNSLKPEDTAVYYCAADRTLYSSGYYYWGQGSQVTVSS | high polyreactivity |
| QVQLVDSGGGLVQAGGSLRLTCDASGSTFYVNFMGWYRQAPGKERELDALIDWRGGSTYYADSVKGRFTISRDNAKNTVYLQMNSLKPEDTAVYYCKKDAQFYYKLPYYKERDWGQGTQVTVSS | low polyreactivity |
| QVQLVDSGGGLVQAGGSLRLTFAASGRTFRWNVMGWYRQAPGKERELVATISRRSGSTNYADSVKGRFTISRDNAKITVYLQMNSLKPEDTAVYYCAVVIVRALVYAGDYWGQGTQVTVSS | low polyreactivity |
| QVQLVDSGGGLVQAGGSLRVSCAASGRIFSGHAMGWYRQAPGKVRELVAAITSGGDDTYYADSVKGRFTISRDNAKNTVYLQMNSLKPEDTAVYYCAARYLGYTYYYWGQGTQVSVSS | low polyreactivity |
| QVQLVDSGGGLVQAGGSLSLSCAASGRIFTHYSMGWYRQATGKERELVAGMSQGGGSTYYADSVKGRFTISRDNAKNTVYLQMNSLKPEDTAVYYCAKTYDYVDYDYWGQGTQVTVSS | low polyreactivity |
| QVQLVDSGGGLVQAGGSLSLSCAASGSTFKHYAMGWYRQAPGKERELVAAISSRGGSTHYADSVKGRFTISRDNAKNTVYLQMNSLKPEDTAVYYCARDTDTLSSRSSDYDYWGQGTQVTVSS | low polyreactivity |
| QVQLVDSGGGLVQAGVSLRLSCAASGSTFVFYAMGWYRQAPGKERELVAGISWSGGSTYYADSVKGRFTISRDNAKNTVYLQMNSLKPEDTAVYYCAARYTRYLGSGYYYCGQGTQVTVSS | high polyreactivity |
| QVQLVDSGGGLVQEGGSLRLSCAASGSIFSTYARGWYRQAPGKEWEVVAAITRGGRTTYADSVKGRFTISRDNAKNTVYLQMNSLKPEDTAVYYCNAVGVYYWWYRLYDYWGQGTQVTLSS | high polyreactivity |
| QVQLVDSGGGVVQAGGSLLLSCPASGLIIKVYAMGWYRQAPGKERELVAAITYSGGSTDYADSVKGRFTISRDNAKNTVFLQMISLKPEDTAVYYCNVEKVGHVNSYGYDYWGQGTQVTVSS | low polyreactivity |
| QVQLVDSGGGVVQAGGSLRLSCAASGFIFSGYAMGWYRPAPGKERELVAVISRGGGSTSYADSVKGRFTISRDNAKNTVYLQMNSLKPEDTAVYYCAAVYYPLSVDNDYWGQGTQVTVSS | high polyreactivity |
| QVQLVDSGGRLEQAGGSLRLSCAASGSIFGWNAMGWYRQAPGKERELVAAINWTGGTTYYADSVKGRITISRDNAKYTVYLQMKSLKPADTAVYYCAARLTYHVAGQITRYYYWGQGTQVTVSS | low polyreactivity |
| QVQLVDSGRGLVQAGGSLRLSCAASGGTFARNAMGWYRQAPGKERELVAAIRGGVSTNYADSVKGRFTISSDNAKNTVYLQMNSLKPEDTAVYYCNASPPTLEGYWGQGTQVTVSS | low polyreactivity |
| QVQLVDSGRGLVQAGGSLRLSCASSGSTFRDYAMGWYRQAPGKETELVAVITWNGGSTYYADSVKGRFTISRDNAKNTVYLEMNSLKPEDTAVYYCGAVYPRSLSTEYYYWGQGTQVTVSS | high polyreactivity |
| QVQLVDSRGGLVQAGGSLRLSCAASGRTLYSNAKGLSRQAPGKERDLVAAISGSGDTTYYADSVKGRFTISRDNAKNTVYLTMKSLKPEDTAVYYCAADHDSYGAGYEYCGQGTQVTVSS | low polyreactivity |
